Measurements as given in PMC3736351 (2014).

Legend:
[1] = target: T1, GHRH receptor (spleen cells, 3- and 14-month old rats) (Rattus norvegicus, UniProt Q02644); assay: homologous competitive radioligand binding
T1 chain: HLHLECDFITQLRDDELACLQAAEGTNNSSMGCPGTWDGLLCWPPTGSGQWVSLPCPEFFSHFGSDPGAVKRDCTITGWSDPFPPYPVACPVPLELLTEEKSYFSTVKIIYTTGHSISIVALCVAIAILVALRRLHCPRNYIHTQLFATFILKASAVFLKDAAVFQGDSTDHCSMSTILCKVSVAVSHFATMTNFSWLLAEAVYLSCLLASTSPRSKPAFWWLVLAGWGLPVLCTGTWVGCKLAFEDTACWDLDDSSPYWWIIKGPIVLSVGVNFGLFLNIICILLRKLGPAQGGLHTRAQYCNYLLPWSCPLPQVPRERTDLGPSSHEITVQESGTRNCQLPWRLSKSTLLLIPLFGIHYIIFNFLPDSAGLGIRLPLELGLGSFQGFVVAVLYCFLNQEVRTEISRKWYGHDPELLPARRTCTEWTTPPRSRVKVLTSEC

[2] = target: T2, GHRH receptor (thymus cells, 3- and 14-month old rats) (Rattus norvegicus, UniProt Q02644); assay: homologous competitive radioligand binding
T2 chain: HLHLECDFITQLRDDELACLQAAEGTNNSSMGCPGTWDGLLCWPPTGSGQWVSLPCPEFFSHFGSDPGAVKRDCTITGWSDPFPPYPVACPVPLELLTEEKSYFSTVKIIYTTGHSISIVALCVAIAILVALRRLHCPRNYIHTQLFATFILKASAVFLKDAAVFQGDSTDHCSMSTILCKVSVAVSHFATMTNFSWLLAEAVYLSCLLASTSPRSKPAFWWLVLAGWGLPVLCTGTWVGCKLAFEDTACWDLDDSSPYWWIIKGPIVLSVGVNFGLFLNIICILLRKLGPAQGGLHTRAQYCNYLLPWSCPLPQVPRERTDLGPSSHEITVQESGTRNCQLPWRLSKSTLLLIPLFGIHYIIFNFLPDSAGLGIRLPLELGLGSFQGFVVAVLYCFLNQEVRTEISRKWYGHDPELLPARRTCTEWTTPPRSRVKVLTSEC

Kd [1]: 2 nM
Kd [2]: 1 nM
Binder: MPLWVFFFVILTLSNSSHCSPPPPLTLRM [GHRH 1-29]
